Source: patent publication US20220041754A1 (CRISPR THERAPEUTICS, published 2022)

Tests used:
[1] = target: T1, anti-CD70 CAR of SEQ ID NO: 6; experiment: flow cytometry, antibody dilution 1:50, cell population with about 65.4% anti-CD70 CAR+ cells
T1 construct: also called anti-CD70 CAR T cells; anti-CD70 chimeric antigen receptor

[2] = target: T1, anti-CD70 CAR of SEQ ID NO: 6; experiment: flow cytometry, antibody dilution 1:100, cell population with about 65.4% anti-CD70 CAR+ cells
[3] = target: T1, anti-CD70 CAR of SEQ ID NO: 6; experiment: flow cytometry, antibody dilution 1:200, cell population with about 65.4% anti-CD70 CAR+ cells
[4] = target: T1, anti-CD70 CAR of SEQ ID NO: 6; experiment: flow cytometry, antibody dilution 1:400, cell population with about 65.4% anti-CD70 CAR+ cells
[5] = target: T1, anti-CD70 CAR of SEQ ID NO: 6; experiment: flow cytometry, antibody dilution 1:800, cell population with about 65.4% anti-CD70 CAR+ cells
[6] = target: T1, anti-CD70 CAR of SEQ ID NO: 6; experiment: flow cytometry, antibody dilution 1:1600, cell population with about 65.4% anti-CD70 CAR+ cells
[7] = target: T1, anti-CD70 CAR of SEQ ID NO: 6; experiment: flow cytometry, antibody dilution 1:3200, cell population with about 65.4% anti-CD70 CAR+ cells
[8] = target: T1, anti-CD70 CAR of SEQ ID NO: 6; experiment: flow cytometry, antibody dilution 1:6400, cell population with about 65.4% anti-CD70 CAR+ cells
[9] = target: T2, anti-BCMA CAR of SEQ ID NO: 7; experiment: flow cytometry on anti-BCMA CAR T cells, antibody at fold dilutions 100 to 12800, % CAR positive cells
T2 construct: also called anti-BCMA CAR T cells
T2 sequence (chain, as listed by the source limits assumed): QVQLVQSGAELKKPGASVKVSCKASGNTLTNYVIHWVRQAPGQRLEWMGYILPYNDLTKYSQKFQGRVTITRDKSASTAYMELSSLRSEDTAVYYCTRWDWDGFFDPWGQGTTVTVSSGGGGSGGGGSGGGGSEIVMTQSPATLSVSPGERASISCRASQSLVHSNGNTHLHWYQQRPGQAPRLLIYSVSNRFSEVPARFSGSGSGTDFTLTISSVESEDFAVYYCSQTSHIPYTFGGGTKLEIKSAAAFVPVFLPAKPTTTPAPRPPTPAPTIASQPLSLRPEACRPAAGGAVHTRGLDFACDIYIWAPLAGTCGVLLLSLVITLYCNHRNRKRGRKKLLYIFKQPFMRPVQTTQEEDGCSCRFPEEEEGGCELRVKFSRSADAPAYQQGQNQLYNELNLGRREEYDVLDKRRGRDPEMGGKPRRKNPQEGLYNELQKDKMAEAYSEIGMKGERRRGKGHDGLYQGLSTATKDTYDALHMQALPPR
Method: (§1) The purified 20H05-02D09 antibody was analyzed by flow cytometry for binding to CAR T cells expressing the anti-CD70 CAR of SEQ ID NO: 6 (anti-CD70 CAR T cells). CAR T cells expressing an anti-BCMA CAR of SEQ ID NO: 7 (anti-BCMA CAR T cells) or an anti-CD19 CAR SEQ ID NO: 8 (anti-CD19 CAR T cells) were used as negative controls. Anti-CD70-scFv antibody (20H05-02D09) was analyzed at various dilutions (FIG. 2).

[10] = target: T3, anti-CD19 CAR SEQ ID NO: 8; experiment: flow cytometry on anti-CD19 CAR T cells, antibody at fold dilutions 100 to 12800, % CAR positive cells
T3 construct: also called anti-CD19 CAR T cells
Method: as §1

T1 sequence (chain, as listed by the source limits assumed): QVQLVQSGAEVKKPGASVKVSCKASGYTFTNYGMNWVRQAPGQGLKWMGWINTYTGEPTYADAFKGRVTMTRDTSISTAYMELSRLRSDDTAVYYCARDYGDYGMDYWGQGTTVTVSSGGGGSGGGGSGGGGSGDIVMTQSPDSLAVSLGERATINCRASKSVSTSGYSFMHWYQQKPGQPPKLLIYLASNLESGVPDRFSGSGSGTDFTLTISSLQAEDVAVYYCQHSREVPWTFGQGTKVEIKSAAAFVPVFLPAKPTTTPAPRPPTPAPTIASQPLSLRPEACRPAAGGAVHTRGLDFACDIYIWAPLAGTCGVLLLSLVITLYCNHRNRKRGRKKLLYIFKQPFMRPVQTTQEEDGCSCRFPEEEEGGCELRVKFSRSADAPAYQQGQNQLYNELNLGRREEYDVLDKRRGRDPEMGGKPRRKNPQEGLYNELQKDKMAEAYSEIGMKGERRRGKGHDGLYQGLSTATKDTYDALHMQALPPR

| percentage of anti-CD70 CAR+ cells [1] [%] | percentage of anti-CD70 CAR+ cells [2] [%] | percentage of anti-CD70 CAR+ cells [3] [%] | percentage of anti-CD70 CAR+ cells [4] [%] | percentage of anti-CD70 CAR+ cells [5] [%] | percentage of anti-CD70 CAR+ cells [6] [%] | percentage of anti-CD70 CAR+ cells [7] [%] | percentage of anti-CD70 CAR+ cells [8] [%] | binding result [9] | binding result [10] | Binder |
| --- | --- | --- | --- | --- | --- | --- | --- | --- | --- | --- |
| 67.7 | 67.5 | 68.3 | 67.2 | 66.5 | 65.4 | 67.8 | 66.5 | no binding | no binding | mouse anti-CD70-scFv monoclonal antibody 20H05-02D09 (antibody, mouse IgG1, kappa, V domains shown, also called 20H05-2D09; native 20H05-2D09) VH: QIQLVQSGPELKKPGETVKISCKASGYTFTNYGMHWVKQAPGKVLKWMGWINTYSGVPTYPDDFKGRFAFSLETSASTASLQINNLKNEDTATYFCATERLRGWFPFWGQGTLVTVSA VL: QIVLTQSPAIMSASPGEKVTISCSASSSVSYMYWYQQKPGSSPKPWIYRTSNLASGVPARFSGSGSGTSYSLTISSMEAEDAATYYCQQYHSYPPTFGGGTKLEIKR |
| 60.8 | 61.3 | 61.7 | 61.8 | 61.5 | 61.4 | 62.7 | 62.4 | – | – | APC conjugated 20H05 (antibody, mouse IgG1, kappa, V domains shown, conjugated with APC (allophycocyanin); site and chain not stated, also called direct APC conjugated antibody) VH: QIQLVQSGPELKKPGETVKISCKASGYTFTNYGMHWVKQAPGKVLKWMGWINTYSGVPTYPDDFKGRFAFSLETSASTASLQINNLKNEDTATYFCATERLRGWFPFWGQGTLVTVSA VL: QIVLTQSPAIMSASPGEKVTISCSASSSVSYMYWYQQKPGSSPKPWIYRTSNLASGVPARFSGSGSGTSYSLTISSMEAEDAATYYCQQYHSYPPTFGGGTKLEIKR |
| 66.3 | 65.9 | 67.6 | 66.4 | 67 | 66.4 | 66.2 | 65.3 | – | – | biotin conjugated 20H05 (antibody, mouse IgG1, kappa, V domains shown, conjugated with biotin; site and chain not stated) VH: QIQLVQSGPELKKPGETVKISCKASGYTFTNYGMHWVKQAPGKVLKWMGWINTYSGVPTYPDDFKGRFAFSLETSASTASLQINNLKNEDTATYFCATERLRGWFPFWGQGTLVTVSA VL: QIVLTQSPAIMSASPGEKVTISCSASSSVSYMYWYQQKPGSSPKPWIYRTSNLASGVPARFSGSGSGTSYSLTISSMEAEDAATYYCQQYHSYPPTFGGGTKLEIKR |
